Measured values: paper PMC3222833 (Journal of medicinal chemistry, 2011)
Values joined by “and” are separate entries in the source; they are usually repeats but may differ in a detail not shown here. Equal entries are not always repeated. Residues, ends and D or L forms follow the SMILES beside them.

What was measured:
[1] = tested on: CC[C@H](NC(=O)[C@H](CC(=O)O)NC(C)=O)C(=O)O; experiment: Saturation kinetics of dipeptide hydrolysis by wild-type rhGCPII; type: biochemical, human; conditions: other: wild-type rhGCPII, Table 1; 37.0 °C
[2] = tested on: CCCCCCCC(NC(=O)[C@H](CC(=O)O)NC(C)=O)C(=O)O; experiment: as above; type: biochemical, human; conditions: 37.0 °C
[3] = tested on: CCCC[C@H](NC(=O)[C@H](CC(=O)O)NC(C)=O)C(=O)O; experiment: as above; type: biochemical, human; conditions: other: wild-type rhGCPII, Table 1; 37.0 °C
[4] = tested on: CCC[C@H](NC(=O)[C@H](CC(=O)O)NC(C)=O)C(=O)O; experiment: as above; type: biochemical, human; conditions: other: wild-type rhGCPII, Table 1; 37.0 °C
[5] = tested on: CSCC[C@H](NC(=O)[C@H](CC(=O)O)NC(C)=O)C(=O)O; experiment: as above; type: biochemical, human; conditions: other: wild-type GCPII, Table 2; 37.0 °C
[6] = tested on: CCCCCC(NC(=O)[C@H](CC(=O)O)NC(C)=O)C(=O)O; experiment: as above; type: biochemical, human; conditions: other: wild-type rhGCPII, Table 1; 37.0 °C
[7] = tested on: CCCCCCC(NC(=O)[C@H](CC(=O)O)NC(C)=O)C(=O)O; experiment: as above; type: biochemical, human; conditions: other: wild-type rhGCPII, Table 1; 37.0 °C
[8] = tested on: CC(=O)N[C@@H](CC(=O)O)C(=O)N[C@@H](C)C(=O)O; experiment: as above; type: biochemical, human; conditions: other: wild-type rhGCPII, Table 1; 37.0 °C
rhGCPII(K699S) mutant = rhGCPII(K699S) mutant (Homo sapiens, UniProt Q04609, K699S); experiment: Saturation kinetics of substrate hydrolysis by mutated GCPII; type: biochemical; conditions: kinetic assay
[9] = target: T1, recombinant human GCPII (rhGCPII) (Homo sapiens, UniProt Q04609); experiment: Saturation kinetics of dipeptide hydrolysis by wild-type rhGCPII; type: biochemical; conditions: ratio of catalytic efficiency
rhGCPII = conditions: WT rhGCPII, radioenzymatic assay with 3H-NAAG; cited from earlier work
[10] = target: T1, recombinant human GCPII (rhGCPII); conditions: cited from earlier work
[11] = other: wild-type GCPII, Table 2
[12] = other: wild-type rhGCPII, Table 1

T1 sequence (Q04609 44-750): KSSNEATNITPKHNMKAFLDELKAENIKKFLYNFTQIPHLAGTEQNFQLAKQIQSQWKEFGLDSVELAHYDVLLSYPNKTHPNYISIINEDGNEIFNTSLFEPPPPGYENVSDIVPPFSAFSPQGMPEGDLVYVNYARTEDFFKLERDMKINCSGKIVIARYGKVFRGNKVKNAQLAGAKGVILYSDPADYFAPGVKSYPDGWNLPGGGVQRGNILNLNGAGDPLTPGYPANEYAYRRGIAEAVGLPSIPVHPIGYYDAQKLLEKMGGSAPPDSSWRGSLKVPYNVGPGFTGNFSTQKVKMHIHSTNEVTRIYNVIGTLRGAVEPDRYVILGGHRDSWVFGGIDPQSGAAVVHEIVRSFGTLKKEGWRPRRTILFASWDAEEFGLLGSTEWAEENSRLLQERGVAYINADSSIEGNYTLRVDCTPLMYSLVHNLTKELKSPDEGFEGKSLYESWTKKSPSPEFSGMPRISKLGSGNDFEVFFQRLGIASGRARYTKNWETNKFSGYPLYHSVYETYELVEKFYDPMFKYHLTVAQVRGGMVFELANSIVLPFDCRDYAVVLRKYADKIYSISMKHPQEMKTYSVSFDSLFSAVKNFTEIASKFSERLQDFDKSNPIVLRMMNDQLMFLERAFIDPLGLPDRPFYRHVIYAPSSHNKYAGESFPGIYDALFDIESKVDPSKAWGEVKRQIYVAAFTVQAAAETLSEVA
rhGCPII(K699S) mutant, sequence (Q04609 44-750 K699S): as the sequence (Q04609 44-750) above, with K656S counted along it

Question: For “recombinant human GCPII (rhGCPII) (Homo sapiens)”, which Km [1] is on record?
Answer: Its Km is 29 ± 8 µM.

Question: What about the kcat [1] of the same compound?
Answer: The kcat was 0.25 ± 0.03 s⁻¹.

Question: And the kcat/Km [1]?
Answer: Its kcat/Km is 8600 M⁻¹ s⁻¹.

Question: What about the Km [2, 11] of the same compound?
Answer: Its Km is 10.4 ± 2.5 µM.

Question: What about the kcat [2, 11] of the same compound?
Answer: The kcat was 0.62 ± 0.10 s⁻¹.

Question: What about the kcat/Km [2, 11] of the same compound?
Answer: Its kcat/Km is 59600 M⁻¹ s⁻¹.

Question: And the Km [2, 12]?
Answer: The Km was 10 ± 2 µM.

Question: And the kcat [2, 12]?
Answer: The kcat was 0.62 ± 0.1 s⁻¹.

Question: And the kcat/Km [2, 12]?
Answer: The kcat/Km was 62000 M⁻¹ s⁻¹.

Question: What about the Km [3] of the same compound?
Answer: The Km was 19 ± 4 µM.

Question: What about the kcat [3] of the same compound?
Answer: Its kcat is 0.24 ± 0.01 s⁻¹.

Question: And the kcat/Km [3]?
Answer: Its kcat/Km is 12600 M⁻¹ s⁻¹.

Question: And the Km [4]?
Answer: Its Km is 31 ± 12 µM.

Question: What about the kcat [4] of the same compound?
Answer: Its kcat is 0.42 ± 0.05 s⁻¹.

Question: What about the kcat/Km [4] of the same compound?
Answer: Its kcat/Km is 13500 M⁻¹ s⁻¹.

Question: What about the Km [5] of the same compound?
Answer: Its Km is 7.5 ± 1.6 µM.

Question: What about the kcat [5] of the same compound?
Answer: The kcat was 0.32 ± 0.07 s⁻¹.

Question: What about the kcat/Km [5] of the same compound?
Answer: Its kcat/Km is 42700 M⁻¹ s⁻¹.

Question: And the Km [6]?
Answer: The Km was 12 ± 1 µM.

Question: What about the kcat [6] of the same compound?
Answer: Its kcat is 0.44 ± 0.04 s⁻¹.

Question: And the kcat/Km [6]?
Answer: Its kcat/Km is 36700 M⁻¹ s⁻¹.

Question: And the Km [7]?
Answer: The Km was 8 ± 2 µM.

Question: What about the kcat [7] of the same compound?
Answer: The kcat was 0.6 ± 0.03 s⁻¹.

Question: What about the kcat/Km [7] of the same compound?
Answer: The kcat/Km was 75000 M⁻¹ s⁻¹.

Question: And the Km [8]?
Answer: Its Km is 85 ± 21 µM.

Question: And the kcat [8]?
Answer: The kcat was 0.23 ± 0.05 s⁻¹.

Question: What about the kcat/Km [8] of the same compound?
Answer: The kcat/Km was 2700 M⁻¹ s⁻¹.

Question: For CCCCCCCC(NC(=O)[C@H](CC(=O)O)NC(C)=O)C(=O)O (some centres unmarked) [8S, Ac-Asp-Ano], which “stronger binding to K699S mutant compared to wild-type GCPII” value (rhGCPII(K699S) mutant) is on record?
Answer: The value was “approximately 3 fold”.

Question: And the “efficiency of rhGCPII hydrolysis compared to Ac-Asp-Ala” value [9]?
Answer: Its value is “approximately 20 fold”.

Question: What does the source list for CC(=O)N[C@@H](CC(=O)O)C(=O)N[C@@H](CCC(=O)O)C(=O)O [NAAG, N-acetyl-aspartyl-glutamate] (Ac-Asp-Glu-OH)?
Answer: Km (rhGCPII): 1.2 ± 0.5 µM; kcat (rhGCPII): 1.1 ± 0.2 ^# s^-1 and 1.1 ± 0.2 ^* s^-1

Question: Which Km [10] does the source give for CSCC[C@H](NC(=O)[C@H](CC(=O)O)NC(C)=O)C(=O)O [NAAM, N-acetyl-aspartyl-methionine] (Ac-Asp-Met-OH) here?
Answer: The Km was 24.8 ± 2.9 µM.
